Paper doi:10.1101/2024.01.23.576903

Molecular target: ζ subunit (F420-reductase subunit) of the ACDS CODH subcomplex from Candidatus Ethanoperedens thermophilum (Candidatus Ethanoperedens thermophilum)
Assay: crystal structure

Substance: ζ subunit (F420-reductase subunit) of the ACDS CODH subcomplex from Candidatus Ethanoperedens thermophilum (natural protein)
- stoichiometry N: 2
